US7893027B2, “Treatment of ocular wounds and ulcers” (The Board of Regents of the University of Oklahoma, priority 2002, dated 2011)

Experiments:
[1] = test system: human corneal epithelial cells (HCEC); test: Modified Boyden chamber chemotaxis / checkerboard assay; type: cell-based; settings: for Number of cells migrated: 4 hr
Description: Human corneal epithelial cells were cultured in basic medium overnight, detached using trypsin-EDTA as described above and resuspended at a final concentration of 8×10^5 cells/ml. Chemotaxis assays were performed using the modified Boyden chamber assay described previously (13). Briefly, 200 (μl of cell suspension was added to the upper chamber and chemoattractants including recombinant CAP37 (10-2000 ng/ml) and the positive control recombinant human Platelet Derived Growth Factor-BB (PDGF-BB, 10 ng/ml, Collaborative Biomedical Products, Bedford Mass.) in 0.1% BSA (endotoxin-low-Sigma, St. Louis) in Geys' Buffer (GIBCO) were added to the lower chamber. The chambers were separated by an 8.0 μm pore membrane (13 mm polyvinylpyrrolidone-free, Whatman, Clifton, N.J.). Membranes were pre-coated with 50 μg/ml collagen type I rat tail (Collaborative Biomedical Products) in 0.02N acetic acid at room temperature for 1 hr and then air dried. Membranes were re-hydrated in basic cell culture medium immediately prior to commencement of each experiment. The negative control in these experiments was 0.1% BSA in Geys' buffer. The chambers were incubated in a humidified atmosphere (37° C., 5% CO2) for 4 hr, the filters were removed, stained with DIFF-QUICK (Dade Behring, Düdingen, Switzerland) and mounted with Permount (FISHER SCIENTIFIC, Pittsburgh, Pa.). The filters were viewed under oil immersion (×400 magnification, BH-2, Olympus, Lake Success, N.Y.) and the total numbers of cells migrated through to the underside of the filter were counted in five different fields on each slide. Triplicates were set up for each experimental point.
To assess whether CAP37 had chemokinetic properties, various concentrations of CAP37 (0, 10, 100 and 1000 ng/ml) were added to the upper chamber as well as to the lower chamber (0, 10, 100, 500, 1000 ng/ml) and a checkerboard assay performed according to the methodology of Zigmond and Hirsch (46).

[2] = test system: β 1 (CD29); test: Flow cytometry of integrin expression on HCEC; type: cell-based, human
Description: (§1) Flow cytometry was used to assess the upregulation of PECAM-1 (CD31), and the integrin molecules β1 (CD29), β2 (CD18), β3 (CD61), β4 (CD104), α1 (CD49a), α2 (CD49b), α3 (CD49c), α4 (CD 49d), and αv (CD51). Human corneal epithelial cells were cultured as above and treated with CAP37 (0-2000 ng/ml) for 0-72 hr. A corresponding culture was left untreated at each time point. Following treatment with CAP37, cells were detached with 0.25% trypsin in 1 mM EDTA (pH 7.4, FISHER SCIENTIFIC, Pittsburgh, Pa.), washed twice in PBS and fixed with 0.125% paraformaldehyde (J.T. BAKER, Phillipsburg, N.J.) overnight at 4° C. The cells were washed in PBS and then incubated in 0.5% normal goat serum and 0.5% bovine serum albumin (BSA) in PBS for 30 min to block non-specific binding sites. Cells were incubated in the primary antibody (at concentrations described below) at 4° C. for 1 hr followed by the secondary antibody (FITC-goat anti-mouse IgG, PHARMINGEN, San Diego, Calif.) at 0.5 μg/10^6 cells and incubated at 4° C. for 30 min. The isotype control for these studies was FITC-labeled mouse isotype IgG1 (PHARMINGEN). The cells were analyzed by flow cytometry (FACS Calibur, BECTON DICKINSON, San Jose, Calif.). At least ten thousand cells were analyzed for each sample.
(§2) The primary antibodies and the concentrations used in the flow cytometry experiments are as follows: mouse anti-human PECAM-1 (CD31) monoclonal antibody clone HEC7 (0.5 μg/10^6 cells, ENDOGEN, Woburn, Mass.), mouse anti-human very late antigen 1α (VLA-1α, or CD49a) monoclonal antibody clone SR84 (0.5 μg/10^6 cells, PHARMINGEN), mouse anti-human VLA-α2 (CD49b) monoclonal antibody clone AK-7 (0.125 μg/10^6 cells, PHARMINGEN), mouse anti-human α3 (CD49c) monoclonal antibody clone C3II.1 (0.125 μg/10^6 cells, PHARMINGEN), mouse anti-human VLA-4 (α4) monoclonal antibody clone 2B4 (1 μg/10^6 cells, R & D systems, Minneapolis, Minn.), mouse anti human α5 (CD49e) monoclonal antibody clone VC5 (0.125 μg/10^6 cells, PHARMINGEN), mouse anti-human β1 (CD29) monoclonal antibody MAR4 (2 μg/10^6 cells, PHARMINGEN), mouse anti human β2 integrin (CD18) monoclonal antibody clone 6.7 (0.5 μg/10^6 cells, PHARMINGEN), mouse anti human αvβ3 (CD51/CD61) monoclonal antibody clone 23C6 (0.5 μg/10^6 cells, PHARMINGEN), and mouse anti human integrin β4 (CD104) monoclonal antibody clone 450-11A (1.0 μg/10^6 cells, PHARMINGEN). A purified mouse IgG1 κ monoclonal immunoglobulin isotype standard (clone MOPC-31C) was used as the isotype matched control in the flow cytometry experiments.

[3] = test system: αv β 3 (CD51/CD61); test: Flow cytometry of integrin expression on HCEC; type: cell-based, human
Description: as §1, §2

[4] = test system: α3 (CD49c); test: Flow cytometry of integrin expression on HCEC; type: cell-based, human
Description: as §1, §2

[5] = test system: α2 (CD49b; VLA-α2); test: Flow cytometry of integrin expression on HCEC; type: cell-based, human
Description: as §1, §2

[6] = test system: α1 (CD49a; VLA-α1); test: Flow cytometry of integrin expression on HCEC; type: cell-based, human
Description: as §1, §2

[7] = test system: β 4 (CD104); test: Flow cytometry of integrin expression on HCEC; type: cell-based, human
Description: as §1, §2

[8] = test system: α4 (CD49d); test: Flow cytometry of integrin expression on HCEC; type: cell-based, human
Description: as §1, §2

[9] = test system: β 2 (CD18); test: Flow cytometry of integrin expression on HCEC; type: cell-based, human
Description: as §1, §2

B1: CAP37: Cationic Antimicrobial Protein of Mr 37 kDa; recombinant protein from human 293 cells, identical to native PMN-derived CAP37 (SEQ ID NO:1) (protein, listed as Homo sapiens)
chain: IVGGRKARPRQFPFLASIQNQGRHFCGGALIHARFVMTAASCFQSQNPGVSTVVLGAYDLRRRERQSRQTFSISSMSENGYDPQQNLNDLMLLQLDREANLTSSVTILPLPLQNATVEAGTRCQVAGWGSQRSGGRLSRFPRFVNVTVTPEDQCRPNNVCTGVLTRRGGICNGDGGTPLVCEGLAHGVASFSLGPCGRGPDFFTRVALFRDWIDGVLNNPGP
- Chemotactic activity ([1]; 2000 ng/ml): reduced but still measurably active
- Concentration range of maximal chemotactic activity ([1]; Boyden chamber): 500 to 1000 ng/mL
- Number of cells migrated ([1]; CAP37 above the filter 0 ng/ml, below the filter 10 ng/ml): 28.56 ± 7.64
- Number of cells migrated ([1]; CAP37 above the filter 0 ng/ml, below the filter 100 ng/ml): 39.82 ± 6.20
- Number of cells migrated ([1]; CAP37 above the filter 0 ng/ml, below the filter 500 ng/ml): 68.89 ± 7.70
- Number of cells migrated ([1]; CAP37 above the filter 0 ng/ml, below the filter 1000 ng/ml): 67.34 ± 8.42
- Number of cells migrated ([1]; CAP37 above the filter 10 ng/ml, below the filter 10 ng/ml): 27.63 ± 3.03
- Number of cells migrated ([1]; CAP37 above the filter 10 ng/ml, below the filter 100 ng/ml): 39.80 ± 6.93
- Number of cells migrated ([1]; CAP37 above the filter 10 ng/ml, below the filter 500 ng/ml): 52.40 ± 15.76
- Number of cells migrated ([1]; CAP37 above the filter 10 ng/ml, below the filter 1000 ng/ml): 62.73 ± 9.66
- Number of cells migrated ([1]; CAP37 above the filter 100 ng/ml, below the filter 100 ng/ml): 36.63 ± 6.48
- Number of cells migrated ([1]; CAP37 above the filter 100 ng/ml, below the filter 1000 ng/ml): 48.57 ± 15.58
- Number of cells migrated ([1]; CAP37 above the filter 1000 ng/ml, below the filter 100 ng/ml): 28.08 ± 2.76
- Number of cells migrated ([1]; CAP37 above the filter 1000 ng/ml, below the filter 1000 ng/ml): 38.13 ± 6.07
- Levels of migration relative to positive control ([1]; PDGF-BB 10 ng/ml as positive control): comparable to those obtained with the positive control, PDGF
- Upregulation of CD29 (β1) ([2]; 6 hr): clearly significant
- Upregulation of CD29 (β1) ([2]; 72 hr): still significantly elevated above background constitutive levels
- Effect of CAP37 on integrin β 1 (CD29) ([2]; HCEC, flow cytometry): Constitutive expression - significant upregulation
- Effect of CAP37 on integrin αv β 3 (CD51/CD61) [3]: Low constitutive expression - no upregulation
- CD49c protein levels ([4]; 48 and 72 hr): returned back to constitutive levels
- Level of CD49c protein expression ([4]; 4 hr to 24 hr): sustained through 24 hr
- Effect of CAP37 on integrin α3 (CD49c) ([4]; HCEC, flow cytometry): High constitutive expression - significant
- Time of initial upregulation of CD49c (α3) ([4]; HCEC, flow cytometry): 4 h
- Effect of CAP37 on integrin α2 (CD49b; VLA-α2) [5]: Constitutive expression - no upregulation
- Effect of CAP37 on integrin α1 (CD49a; VLA-α1) [6]: Constitutive expression - no upregulation
- Effect of CAP37 on integrin β 4 (CD104) [7]: Constitutive expression - no upregulation
- Effect of CAP37 on integrin α4 (CD49d) [8]: Low constitutive expression - no upregulation
- Effect of CAP37 on integrin β 2 (CD18) [9]: No constitutive expression - no upregulation
